Results on 167 variants are retold here after the Human Domainome abundance scans (Beltran et al. 2025).

B1: Chromodomain-helicase-DNA-binding protein 5, residues 338 to 390; numbered along this chain, Q8TDI0 (parent)
chain: YETDHQDYCEVCQQGGEIILCDTCPRAYHLVCLDPELEKAPEGKWSCPHCEKE

± gives the uncertainty stated by the source.

The variants in this series derive from B1. Description: abundance fitness (aPCA) (normalised: wild type 0, dead -1); higher = more abundant; growth selection in yeast, the domain comes from the species named. The note with it: Homo sapiens.
On to Y28D, for which the abundance fitness is -0.713 ± 0.28.

On to Y28P, for which the abundance fitness is -0.85 ± 0.22.

For Y28A, the abundance fitness was -0.085 ± 0.14.

On to Y28S, for which the abundance fitness was -0.075 ± 0.12.

Consider Y28H, for which the abundance fitness is -0.158 ± 0.23.

Consider P35E, for which the abundance fitness stood at 0.001 ± 0.12.

Consider V31L, for which the abundance fitness is -0.104 ± 0.097.

On to V31E, for which the abundance fitness turned out to be 0.257 ± 0.12.

As to V31D, the abundance fitness is -0.157 ± 0.17.

With V31T, the abundance fitness is -0.023 ± 0.14.

Turning to V31C, the abundance fitness is -0.325 ± 0.2.

In the case of L30Q, the abundance fitness was 0.107 ± 0.16.

In the case of L30D, the abundance fitness was -0.206 ± 0.23.

In the case of H5A, the abundance fitness turned out to be 0.488 ± 0.12.

Regarding H5T, the abundance fitness turned out to be 0.116 ± 0.12.

With K52R, the abundance fitness is -0.109 ± 0.13.

As for K52C, the abundance fitness is -0.381 ± 0.23.

Turning to K52S, the abundance fitness is -0.115 ± 0.14.

For the variant K52P, the abundance fitness was -0.5 ± 0.2.

For the variant K52F, the abundance fitness was -0.248 ± 0.22.

As to C50R, the abundance fitness is -0.71 ± 0.12.

On to C50F, for which the abundance fitness was -0.654 ± 0.23.

Consider C50S, for which the abundance fitness is -0.416 ± 0.12.

For the variant C24T, the abundance fitness was -0.586 ± 0.19.

Turning to C24F, the abundance fitness was -0.567 ± 0.29.

Consider C24S, for which the abundance fitness was -0.753 ± 0.13.

Consider C24W, for which the abundance fitness is -0.736 ± 0.14.

Turning to D22W, the abundance fitness is -0.373 ± 0.17.

For D22Y, the abundance fitness worked out at 0.088 ± 0.21.

For D22C, the abundance fitness is -0.432 ± 0.15.

With D22F, the abundance fitness was -0.597 ± 0.21.

Take D22S: the abundance fitness is -0.244 ± 0.12.

On to D7T, for which the abundance fitness came to 0.112 ± 0.15.

Turning to D7N, the abundance fitness was -0.129 ± 0.097.

As to D7W, the abundance fitness is -0.613 ± 0.18.

In the case of D7I, the abundance fitness is -0.317 ± 0.28.

Regarding L37P, the abundance fitness was -0.085 ± 0.15.

Regarding L37C, the abundance fitness was -0.094 ± 0.16.

Turning to L37H, the abundance fitness is -0.069 ± 0.33.

As to E42D, the abundance fitness is -0.013 ± 0.18.

On to E42R, for which the abundance fitness is -0.085 ± 0.11.

For Q13N, the abundance fitness is 0.029 ± 0.18.

On to Q13G, for which the abundance fitness came out at 0.18 ± 0.084.

On to Q13H, for which the abundance fitness is -0.268 ± 0.23.

On to Q13Y, for which the abundance fitness is -0.198 ± 0.16.

In the case of Q13A, the abundance fitness was -0.034 ± 0.1.

Consider Q13C, for which the abundance fitness was -0.076 ± 0.14.

As for D4K, the abundance fitness was found to be 0.073 ± 0.18.

D4G: the abundance fitness was 0.001 ± 0.083.

Regarding S46T, the abundance fitness stood at 0.024 ± 0.15.

S46K: the abundance fitness was -0.258 ± 0.18.

Consider S46L, for which the abundance fitness came out at 0.051 ± 0.12.

Regarding I18K, the abundance fitness was determined as 0.137 ± 0.22.

Regarding D34C, the abundance fitness was -0.161 ± 0.18.

On to D34G, for which the abundance fitness is -0.167 ± 0.13.

On to Q14V, for which the abundance fitness is -0.107 ± 0.12.

For Q14M, the abundance fitness was determined as 0.084 ± 0.16.

For C47K, the abundance fitness was -0.599 ± 0.22.

C47W: the abundance fitness was -0.58 ± 0.13.

For Y1C, the abundance fitness is 0.245 ± 0.22.

As to Y1V, the abundance fitness is 0.159 ± 0.36.

Turning to Y1R, the abundance fitness amounted to 0.063 ± 0.47.

Regarding Y1F, the abundance fitness was -0.041 ± 0.22.

As for Y1G, the abundance fitness came out at 0.239 ± 0.27.

For A40K, the abundance fitness is -0.218 ± 0.19.

Regarding A40Q, the abundance fitness is -0.273 ± 0.24.

A40D: the abundance fitness is -0.243 ± 0.19.

E10W: the abundance fitness is 0.234 ± 0.14.

With E10L, the abundance fitness was determined as 0.175 ± 0.098.

T3Q: the abundance fitness worked out at 0.05 ± 0.17.

Regarding T3A, the abundance fitness was 0.098 ± 0.11.

Take T3S: the abundance fitness was 0.077 ± 0.12.

For P25M, the abundance fitness was -0.167 ± 0.2.

As to P25L, the abundance fitness is -0.157 ± 0.13.

On to P25H, for which the abundance fitness was -0.833 ± 0.43.

On to P25S, for which the abundance fitness is -0.1 ± 0.14.

With P25V, the abundance fitness is -0.124 ± 0.12.

For the variant P25C, the abundance fitness is -0.278 ± 0.3.

For the variant E17W, the abundance fitness worked out at 0.188 ± 0.14.

As to E17C, the abundance fitness was -0.105 ± 0.13.

With E17S, the abundance fitness was -0.354 ± 0.13.

Regarding L33T, the abundance fitness turned out to be 0.163 ± 0.13.

Consider L33H, for which the abundance fitness was determined as 0.046 ± 0.22.

With L33A, the abundance fitness was -0.085 ± 0.11.

On to L33I, for which the abundance fitness is -0.235 ± 0.21.

Turning to L33E, the abundance fitness was -0.414 ± 0.11.

On to E38N, for which the abundance fitness was -0.271 ± 0.26.

As for E38H, the abundance fitness was -0.207 ± 0.2.

Regarding C32Y, the abundance fitness was -0.777 ± 0.15.

With C32T, the abundance fitness was -1.02 ± 0.2.

With C32N, the abundance fitness is -0.579 ± 0.29.

C32P: the abundance fitness is -0.885 ± 0.2.

Turning to C32V, the abundance fitness is -0.618 ± 0.14.

C32M: the abundance fitness was -0.926 ± 0.2.

Regarding P48Y, the abundance fitness is -0.022 ± 0.28.

As to P48V, the abundance fitness was -0.04 ± 0.1.

For P48I, the abundance fitness was determined as 0.025 ± 0.19.

In the case of H49A, the abundance fitness was -0.011 ± 0.2.

Take H49Y: the abundance fitness is -0.042 ± 0.2.

For C9R, the abundance fitness was -0.752 ± 0.12.

As to C9F, the abundance fitness was -1.18 ± 0.22.

Regarding C9Q, the abundance fitness was -1.04 ± 0.27.

G15N: the abundance fitness came out at 0.116 ± 0.19.

With G15I, the abundance fitness was -0.414 ± 0.39.

G15V: the abundance fitness is -0.143 ± 0.12.

As to G15M, the abundance fitness is 0.143 ± 0.2.

Take C21W: the abundance fitness is -1.08 ± 0.23.

For the variant C21N, the abundance fitness was -0.889 ± 0.27.

For C21V, the abundance fitness is -0.519 ± 0.13.

For the variant Y8Q, the abundance fitness was determined as 0.437 ± 0.15.

On to Y8A, for which the abundance fitness amounted to 0.142 ± 0.089.

Take Y8T: the abundance fitness was -0.088 ± 0.14.

For the variant Y8H, the abundance fitness was 0.349 ± 0.17.

On to Y8L, for which the abundance fitness came out at 0.06 ± 0.1.

Turning to Q6F, the abundance fitness was -0.234 ± 0.13.

As to Q6R, the abundance fitness was -0.183 ± 0.14.

Q6E: the abundance fitness was -0.186 ± 0.22.

G16L: the abundance fitness was 0.239 ± 0.11.

G16A: the abundance fitness is -0.037 ± 0.11.

In the case of G16Q, the abundance fitness is 0.183 ± 0.23.

On to C12Q, for which the abundance fitness is -0.79 ± 0.13.

C12W: the abundance fitness was -1.02 ± 0.16.

Consider C12A, for which the abundance fitness was -0.688 ± 0.11.

As to C12M, the abundance fitness is -0.671 ± 0.13.

Turning to C12G, the abundance fitness was -0.752 ± 0.11.

As to C12S, the abundance fitness is -1.04 ± 0.13.

In the case of C12E, the abundance fitness was -0.866 ± 0.14.

In the case of K39E, the abundance fitness is -0.096 ± 0.13.

With L20N, the abundance fitness was 0.091 ± 0.16.

Regarding L20R, the abundance fitness was found to be 0.266 ± 0.092.

For L20H, the abundance fitness is 0.224 ± 0.15.

On to L20M, for which the abundance fitness worked out at 0.371 ± 0.17.

Turning to V11W, the abundance fitness was -0.038 ± 0.13.

As to E51S, the abundance fitness is -0.365 ± 0.11.

On to E51D, for which the abundance fitness was -0.114 ± 0.15.

Turning to E36F, the abundance fitness is -0.237 ± 0.19.

On to E36N, for which the abundance fitness was -0.166 ± 0.19.

With E36A, the abundance fitness is -0.033 ± 0.12.

As to E36M, the abundance fitness was 0.069 ± 0.16.

Regarding E36V, the abundance fitness was 0.205 ± 0.12.

Turning to R26I, the abundance fitness is -0.059 ± 0.19.

Take R26Q: the abundance fitness amounted to 0.205 ± 0.16.

R26G: the abundance fitness is -0.029 ± 0.089.

With R26K, the abundance fitness is 0.094 ± 0.17.

With P41A, the abundance fitness stood at 0.058 ± 0.11.

Take I19Q: the abundance fitness amounted to 0.029 ± 0.15.

Regarding I19Y, the abundance fitness was -0.226 ± 0.2.

Turning to I19T, the abundance fitness came out at 0.303 ± 0.12.

I19N: the abundance fitness was 0.161 ± 0.16.

For the variant I19E, the abundance fitness was -0.056 ± 0.13.

Turning to I19L, the abundance fitness stood at 0.121 ± 0.11.

Regarding K44G, the abundance fitness worked out at 0.065 ± 0.093.

For W45Y, the abundance fitness is -0.293 ± 0.17.

Consider W45D, for which the abundance fitness is -0.268 ± 0.13.

T23D: the abundance fitness is -0.09 ± 0.17.

T23S: the abundance fitness was -0.01 ± 0.12.

As to T23Q, the abundance fitness was -0.15 ± 0.2.

Turning to T23P, the abundance fitness was -0.922 ± 0.22.

For the variant H29D, the abundance fitness was -0.451 ± 0.15.

As for H29E, the abundance fitness was -0.736 ± 0.16.

Regarding H29M, the abundance fitness is -0.547 ± 0.17.

H29V: the abundance fitness was -1.1 ± 0.15.

As to G43M, the abundance fitness is -0.088 ± 0.17.

Take G43Q: the abundance fitness is -0.074 ± 0.15.

On to G43A, for which the abundance fitness is -0.192 ± 0.13.

As to G43P, the abundance fitness was determined as 0.032 ± 0.12.

Take G43K: the abundance fitness was 0.057 ± 0.17.
